What all share (assay): cell-based or functional assay
Assay [1] addresses human glucagon receptor (human, UniProt P47871 26-477).
The target in assay [2] is T1, human GIP receptor (human, UniProt P48546 22-466).
T1 sequence (looked up): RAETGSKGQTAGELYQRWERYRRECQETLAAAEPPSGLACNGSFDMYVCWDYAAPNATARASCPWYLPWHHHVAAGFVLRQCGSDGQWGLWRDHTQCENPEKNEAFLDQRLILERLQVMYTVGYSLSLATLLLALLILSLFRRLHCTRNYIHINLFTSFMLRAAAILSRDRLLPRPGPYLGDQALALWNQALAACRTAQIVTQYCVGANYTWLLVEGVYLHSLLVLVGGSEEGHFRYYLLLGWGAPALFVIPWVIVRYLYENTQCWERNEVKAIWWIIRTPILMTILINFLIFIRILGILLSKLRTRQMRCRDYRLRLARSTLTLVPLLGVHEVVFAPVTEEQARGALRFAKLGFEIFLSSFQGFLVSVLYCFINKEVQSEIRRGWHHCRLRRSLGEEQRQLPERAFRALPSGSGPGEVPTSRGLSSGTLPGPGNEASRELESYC

In assay [3] the target is human GLP-1 receptor (human, UniProt P43220 24-463).

Consider four molecules from US20140213513A1 (Sanofi, priority 2012, published 2014).

*1 amine or outer side, *2 acyl side, *3 side chain or, on linkers, in order; H or OH if unused. Where no end group is shown, it is not given here. Side-chain parts run from the residue outwards. [ ]: non-standard residue; d: D form. The star is where a group is joined. γGlu = O=C(O)[C@H](CCC(=O)[*:2])N[*:1]; Stearoyl = CCCCCCCCCCCCCCCCCC(=O)*; Palmitoyl = CCCCCCCCCCCCCCCC(=O)*; Aib = CC(C)(N)C(=O)O

Chain of human glucagon receptor (P47871 26-477): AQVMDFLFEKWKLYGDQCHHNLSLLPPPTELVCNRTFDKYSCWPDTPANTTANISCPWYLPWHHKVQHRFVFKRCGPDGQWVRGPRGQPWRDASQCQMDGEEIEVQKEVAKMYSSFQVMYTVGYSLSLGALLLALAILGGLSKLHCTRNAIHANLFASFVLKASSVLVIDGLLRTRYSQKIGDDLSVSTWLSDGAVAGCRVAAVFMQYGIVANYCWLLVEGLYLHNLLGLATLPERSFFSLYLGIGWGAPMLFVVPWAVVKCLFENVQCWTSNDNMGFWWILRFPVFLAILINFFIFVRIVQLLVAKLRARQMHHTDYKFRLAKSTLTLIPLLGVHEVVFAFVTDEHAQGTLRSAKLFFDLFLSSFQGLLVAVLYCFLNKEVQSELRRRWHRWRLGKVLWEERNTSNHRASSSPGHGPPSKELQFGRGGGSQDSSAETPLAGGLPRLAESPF

B1: exendin-4 peptide analogue SEQ ID NO: 16 (peptide)
peptide: Y[Aib]EGTFTSDLSIQK([γGlu-Stearoyl])ESKAA[Aib]EFIEWLKAGGPSSGAPPPSK-NH2
modifications: N-terminus assumed
SMILES: CCCCCCCCCCCCCCCCCC(=O)N[C@@H](CCC(=O)NCCCC[C@H](NC(=O)[C@H](CCC(N)=O)NC(=O)[C@@H](NC(=O)[C@H](CO)NC(=O)[C@H](CC(C)C)NC(=O)[C@H](CC(=O)O)NC(=O)[C@H](CO)NC(=O)[C@@H](NC(=O)[C@H](Cc1ccccc1)NC(=O)[C@@H](NC(=O)CNC(=O)[C@H](CCC(=O)O)NC(=O)C(C)(C)NC(=O)[C@@H](N)Cc1ccc(O)cc1)[C@@H](C)O)[C@@H](C)O)[C@@H](C)CC)C(=O)N[C@@H](CCC(=O)O)C(=O)N[C@@H](CO)C(=O)N[C@@H](CCCCN)C(=O)N[C@@H](C)C(=O)N[C@@H](C)C(=O)NC(C)(C)C(=O)N[C@@H](CCC(=O)O)C(=O)N[C@@H](Cc1ccccc1)C(=O)N[C@H](C(=O)N[C@@H](CCC(=O)O)C(=O)N[C@@H](Cc1c[nH]c2ccccc12)C(=O)N[C@@H](CC(C)C)C(=O)N[C@@H](CCCCN)C(=O)N[C@@H](C)C(=O)NCC(=O)NCC(=O)N1CCC[C@H]1C(=O)N[C@@H](CO)C(=O)N[C@@H](CO)C(=O)NCC(=O)N[C@@H](C)C(=O)N1CCC[C@H]1C(=O)N1CCC[C@H]1C(=O)N1CCC[C@H]1C(=O)N[C@@H](CO)C(=O)N[C@@H](CCCCN)C(N)=O)[C@@H](C)CC)C(=O)O
With B1, the “EC50 hGLUC R” value in assay [1] turned out to be 17 nM. Besides, the “EC50 hGIP R” value in assay [2] was found to be 0.0156 nM. For the same molecule, the “EC50 hGLP-1 R” value in assay [3] stood at 0.007 nM.

B2: exendin-4 peptide analogue SEQ ID NO: 13 (peptide)
peptide: Y[Aib]QGTFTSDLSIQK([γGlu-Palmitoyl])EKRYA[Aib]EFIEWLKNTGPSSGAPPPS-NH2
modifications: N-terminus assumed
SMILES: CCCCCCCCCCCCCCCC(=O)N[C@@H](CCC(=O)NCCCC[C@H](NC(=O)[C@H](CCC(N)=O)NC(=O)[C@@H](NC(=O)[C@H](CO)NC(=O)[C@H](CC(C)C)NC(=O)[C@H](CC(=O)O)NC(=O)[C@H](CO)NC(=O)[C@@H](NC(=O)[C@H](Cc1ccccc1)NC(=O)[C@@H](NC(=O)CNC(=O)[C@H](CCC(N)=O)NC(=O)C(C)(C)NC(=O)[C@@H](N)Cc1ccc(O)cc1)[C@@H](C)O)[C@@H](C)O)[C@@H](C)CC)C(=O)N[C@@H](CCC(=O)O)C(=O)N[C@@H](CCCCN)C(=O)N[C@@H](CCCNC(=N)N)C(=O)N[C@@H](Cc1ccc(O)cc1)C(=O)N[C@@H](C)C(=O)NC(C)(C)C(=O)N[C@@H](CCC(=O)O)C(=O)N[C@@H](Cc1ccccc1)C(=O)N[C@H](C(=O)N[C@@H](CCC(=O)O)C(=O)N[C@@H](Cc1c[nH]c2ccccc12)C(=O)N[C@@H](CC(C)C)C(=O)N[C@@H](CCCCN)C(=O)N[C@@H](CC(N)=O)C(=O)N[C@H](C(=O)NCC(=O)N1CCC[C@H]1C(=O)N[C@@H](CO)C(=O)N[C@@H](CO)C(=O)NCC(=O)N[C@@H](C)C(=O)N1CCC[C@H]1C(=O)N1CCC[C@H]1C(=O)N1CCC[C@H]1C(=O)N[C@@H](CO)C(N)=O)[C@@H](C)O)[C@@H](C)CC)C(=O)O
In the case of B2, the “EC50 hGLUC R” value in assay [1] was found to be 0.0202 nM. For the same molecule, in assay [2], the “EC50 hGIP R” value came out at 0.0263 nM. Further, the “EC50 hGLP-1 R” value in assay [3] was found to be 0.0141 nM.

B3: exendin-4 peptide analogue SEQ ID NO: 15 (peptide)
peptide: Y[Aib]QGTFTSDLSIQK([γGlu-Palmitoyl])EQRAA[Aib]EFIEWLKNTGPSSGAPPPS-NH2
modifications: N-terminus assumed
SMILES: CCCCCCCCCCCCCCCC(=O)N[C@@H](CCC(=O)NCCCC[C@H](NC(=O)[C@H](CCC(N)=O)NC(=O)[C@@H](NC(=O)[C@H](CO)NC(=O)[C@H](CC(C)C)NC(=O)[C@H](CC(=O)O)NC(=O)[C@H](CO)NC(=O)[C@@H](NC(=O)[C@H](Cc1ccccc1)NC(=O)[C@@H](NC(=O)CNC(=O)[C@H](CCC(N)=O)NC(=O)C(C)(C)NC(=O)[C@@H](N)Cc1ccc(O)cc1)[C@@H](C)O)[C@@H](C)O)[C@@H](C)CC)C(=O)N[C@@H](CCC(=O)O)C(=O)N[C@@H](CCC(N)=O)C(=O)N[C@@H](CCCNC(=N)N)C(=O)N[C@@H](C)C(=O)N[C@@H](C)C(=O)NC(C)(C)C(=O)N[C@@H](CCC(=O)O)C(=O)N[C@@H](Cc1ccccc1)C(=O)N[C@H](C(=O)N[C@@H](CCC(=O)O)C(=O)N[C@@H](Cc1c[nH]c2ccccc12)C(=O)N[C@@H](CC(C)C)C(=O)N[C@@H](CCCCN)C(=O)N[C@@H](CC(N)=O)C(=O)N[C@H](C(=O)NCC(=O)N1CCC[C@H]1C(=O)N[C@@H](CO)C(=O)N[C@@H](CO)C(=O)NCC(=O)N[C@@H](C)C(=O)N1CCC[C@H]1C(=O)N1CCC[C@H]1C(=O)N1CCC[C@H]1C(=O)N[C@@H](CO)C(N)=O)[C@@H](C)O)[C@@H](C)CC)C(=O)O
Take B3: the “EC50 hGLUC R” value in assay [1] was 0.054 nM. In assay [2], the “EC50 hGIP R” value worked out at 0.0114 nM. Moreover, the “EC50 hGLP-1 R” value in assay [3] is 0.0069 nM.

B4: exendin-4 peptide analogue SEQ ID NO: 14 (peptide)
peptide: Y[Aib]QGTFTSDLSIQK([γGlu-Palmitoyl])EKRAA[Aib]EFIEWLKA[dA]GPSSGAPPPS-NH2
modifications: N-terminus assumed
SMILES: CCCCCCCCCCCCCCCC(=O)N[C@@H](CCC(=O)NCCCC[C@H](NC(=O)[C@H](CCC(N)=O)NC(=O)[C@@H](NC(=O)[C@H](CO)NC(=O)[C@H](CC(C)C)NC(=O)[C@H](CC(=O)O)NC(=O)[C@H](CO)NC(=O)[C@@H](NC(=O)[C@H](Cc1ccccc1)NC(=O)[C@@H](NC(=O)CNC(=O)[C@H](CCC(N)=O)NC(=O)C(C)(C)NC(=O)[C@@H](N)Cc1ccc(O)cc1)[C@@H](C)O)[C@@H](C)O)[C@@H](C)CC)C(=O)N[C@@H](CCC(=O)O)C(=O)N[C@@H](CCCCN)C(=O)N[C@@H](CCCNC(=N)N)C(=O)N[C@@H](C)C(=O)N[C@@H](C)C(=O)NC(C)(C)C(=O)N[C@@H](CCC(=O)O)C(=O)N[C@@H](Cc1ccccc1)C(=O)N[C@H](C(=O)N[C@@H](CCC(=O)O)C(=O)N[C@@H](Cc1c[nH]c2ccccc12)C(=O)N[C@@H](CC(C)C)C(=O)N[C@@H](CCCCN)C(=O)N[C@@H](C)C(=O)N[C@H](C)C(=O)NCC(=O)N1CCC[C@H]1C(=O)N[C@@H](CO)C(=O)N[C@@H](CO)C(=O)NCC(=O)N[C@@H](C)C(=O)N1CCC[C@H]1C(=O)N1CCC[C@H]1C(=O)N1CCC[C@H]1C(=O)N[C@@H](CO)C(N)=O)[C@@H](C)CC)C(=O)O
For B4, in assay [1], the “EC50 hGLUC R” value is 0.0623 nM. In assay [2], the “EC50 hGIP R” value came to 0.0062 nM. The “EC50 hGLP-1 R” value in assay [3] came to 0.0065 nM.
